Test results published in publication PMC5531734 (Molecular Biology of the Cell, 2017).

Molecular target: Na/K-ATPase α1-β2 (ATP1A1 with ATP1B2) (human, UniProt P05023-1 1-1023; P14415 1-290)
Test: binding to transfected cells, Western blot of washed cell pellets

B1: retinoschisin (natural protein)
chain: STEDEGEDPWYQKACKCDCQGGPNALWSAGATSLDCIPECPYHKPLGFESGEVTPDQITCSNPEQYVGWYSSWTANKARLNSQGFGCAWLSKFQDSSQWLQIDLKEIKVISGILTQGRCDIDEWMTKYSVQYRTDERLNWIYYKDQTGNNRVFYGNSDRTSTVQNLLRPPIISRFIRLIPLGWHVRIAIRMELLECVSKCA
- retinoschisin binding relative to α3-β2 (densitometry): 1.5 fold of binding to α3-β2
